The test has as its target Photosystem II core complex from solubilized grana (SG-PSII) (Nicotiana tabacum (endogenous in thylakoids) | Nicotiana tabacum) (UniProt P69556). Briefly: SEC + native gel or EMSA; Ni-NTA-purified PSII pools on Superose 6 in 40 mM MES-NaOH pH 6.5, 20 mM NaCl, 5 mM MgCl2, 1 mM CaCl2, 10 mM NaHCO3, 0.01% β-DDM; pools and fractions checked by BN-PAGE (3-12% gradient, 4°C); C2 also seen by negative-stain TEM.

As for “Photosystem II core complex from solubilized grana (SG-PSII) (from UniProt P69556 1-344; P06411 1-508; P06413 15-473; P69686 1-353; P69384 1-83; P06415 1-73; P60139 1-38; Q40519 38-136)”, the stoichiometry N (usually a count of units in the complex or per binding partner) amounted to 2.

(Values after paper PMC4674563.)
